From the RNAGym collection of RNA variant scans (doi:10.7554/elife.80360)

B1: HDV Ribozyme (parent)
chain: GGCCGGCAUGGUCCCAGCCUCCUCGCUGGCGCCGGCUGGGCAACAUUCCGAGGGGACCGUCCCCUCGGUAAUGGCGAAUGGGACCCA

Variants of: B1
Assay: self-cleavage, relative activity (ratio to wild type); higher = more cleavage; co-transcriptional

Variant	self-cleavage
G55A G74C	0.208
A71U U79A	0.782
G68A C75U	0.0615
C24U G54A	0.779
G29U G34A	0.111
C22A C84A	0.0707
U69C G73U	0.489
A43U C58A	0.614
A8U G11A	0.151
C62A U72A	0.54
G1C C66A	0.19
C3G G31C	0.0455
C48U A77G	0.612
G29A U60C	0.0997
C58U G76A	1.08
G5C G55A	0.175
G52U C62U	0.754
G28U G55U	0.185
C3A A43C	0.0504
C21G C26G	0.0723
A43U G59A	0.633
U27G G35U	0.277
C66G C75A	0.166
C7G C41G	0.128

Variant	self-cleavage
G10U G81A	0.026
G2C G35U	0.0747
C21U C22G	0.0264
C14U G39C	0.262
G67A G81U	0.101
U47G A71C	0.959
U72A A87G	0.452
C36A G40C	0.102
U47A U60G	1.02
C33G C86G	0.151
C14U C84A	0.643
G25C C49G	0.0594
G38A C57G	0.224
G29A U60G	0.0923
G6A C21U	0.0665
C21G G39U	0.0378
G5A C64U	0.359
C13U C48G	0.499
A51U C64A	0.845
C18A U60C	0
A8G C30U	0.806
G74A C85A	0.657
U20A U60G	0.128
A51G A78G	0.674

Variant	self-cleavage
G6U G74C	0.0449
U47C A51C	0.776
C7U U72A	0.604
C48G G67C	1
U46C A77G	0.516
G1C C64A	0.231
C15A G28C	0.0449
G17U A45G	0.525
G2C C63A	0.0213
C3A C86U	0.745
C14G G53A	0.86
G68U A71U	1.01
U12C A78U	0
A8C G81U	0.201
A70C G82A	0.181
C32G C33G	0.0906
G5A G76U	0.148
C64G A83U	0.508
C32A U72C	0.133
C7G C58G	0.293
C66A A78G	0.538
U37G G50U	0.135
U27G C58A	0.516
C41U G82C	0.136

Variant	self-cleavage
G54C C63G	0.831
G10C U37G	0.262
U23C G74C	0.277
G55C A71U	0.872
G29U C62G	0
C4A G55A	0.3
C24U G80A	0.0525
G38C C58A	0.361
C18G C24U	0.107
C14A U65G	0.688
C19G C21A	0.208
C14G G31A	0.324
C7U A16U	0.643
A51C C85A	0.755
C7U U27A	0.519
C61A G81U	0.347
G40C U46A	0.0339
G29C G31A	0.0875
C33G C57A	0.147
G1C C14G	0.0615
C21A C44A	0.0604
G55U A71G	1.04
U9G G59A	1.16
C30A G81U	0.134

Variant	self-cleavage
A51U C63A	0.911
C26U U47A	1.16
C13G G35U	0.0504
G6U U79C	0.123
A16C G76A	1.08
C36A C57G	0.0898
C4G G6A	0
U9A G39A	0.665
C13G U20C	0.158
C13A G59U	0.356
U23A U79A	0.646
G40C A70G	0.0941
G73C C75A	0.173
U20A C66A	0
G1U U47G	0.405
C49A U72A	0.225
G25A C26A	0.0852
G10C U27G	0.798
U27C G81C	0.369
C30U G31U	0.0268
G17U C18A	0.0978
G11C G68U	0.291
G2U A43U	0.0866
C49G A78U	0.138

Variant	self-cleavage
G2C C4U	0.475
C61U C75U	0.254
A8C G68U	0.943
U46A C62A	0.543
C26A C57G	1.1
C7A G17C	0
C14U G38C	0.158
G1A C32A	0.0386
U37G C44G	0.0692
C24A C64U	0.866
C18A U20G	0.249
C22U U65A	0.831
U69A G76A	0.727
U72A A78U	0.161
G29U G76C	0.12
G34U C86A	0.325
U69G A71C	0.575
A43U G80U	0.173
C7U G76C	0.815
G5A C57A	0.0449
G39U C41U	0.966
G35A G74C	0.208
U27G U79C	0.308
G31C G80U	0.0811

Variant	self-cleavage
G1C A77G	0
C44A U79A	0.244
C49G G80A	0.465
C19U U20G	0.0594
G5A U9G	0.111
G2C U72A	0.106
G2U G38A	0.032
C64U U72C	0.612
C63U C66U	0.816
C7U G34U	0.0923
G11C G17C	0.0536
G1A C22U	0.0779
U37G G80A	0.0308
U12C C63G	0.123
U47C C62U	1.16
G29C C44A	0.0554
C64A G81C	0.203
G39U G59C	0.671
C61U G81C	0.29
G2U U46C	0.0213
U23A G82C	0.326
G11C C13G	0.0437
G17C C86U	0.237
